Measured values as given in article PMC5895705, “Activation of the DnaK-ClpB Complex is Regulated by the Properties of the Bound Substrate” (Scientific Reports, 2018).

Target: T1, ClpB, wild type (E. coli, UniProt P63284 1-857)
T1 construct: ClpB, E. coli, wild type; also called wt ClpB; wt-ClpB; source: E. coli BB4561, purified as previously described
Test: co-sedimentation; G6PDH50 aggregates (1 μM) incubated 10 min at 30 °C in refolding buffer with DnaJ, 3.5 μM wt DnaK or variant, with or without 5 μM wt or mutant ClpB, 3 mM ATP with regenerating system, no GrpE; 122,000 x g, 40 min, 4 °C; pellets on SDS-PAGE or NuPAGE, densitometry, controls with native G6PDH subtracted
Details: both partners purified

B1: DnaK_(1–507) (domain or fragment)
chain: not shown
notes: DnaK, E. coli, residues 1-507 (lid deleted); also called Δlid; Δlid-DnaK
- binding result: binds
